Reference: patent US20230203153A1 (CHILDREN S MEDICAL CENTER, published 2023)
Several values for one entry are separate records, joined by “and”; a condition that tells them apart may be missing. Equal values may be shown once. Read-outs that look alike come from different tables or passages of the source. Bridge positions count the residues as written; N and C are the ends. Ends that are not written are not given here. * marks the point of attachment. Biotin = O=C1N[C@H]2[C@H](CS[C@H]2CCCCC(=O)*)N1

T1: cyclic (biotinylated) ABCB5 peptide (human, disulfide 1-18)
T1 construct: immobilised at 200 nM on streptavidin-precoated plates; also called cyclic ABCB5 peptide
T1 peptide: Biotin-CRFGAYLIQAGRMTPEGC

T2: ABCB4 peptide segment corresponding to the ABCB5 linear epitope peptide (human, UniProt P21439 957-972, limits assumed)
T2 construct: domain: corresponding peptide segment (3rd extracellular loop); also called homologous control peptide
T2 peptide (looked up): RFGAYLIVNGHMRFRD

T3: 'scrambled' (neg. ctrl.) peptide (also: conjugated to BSA)
T3 construct: also called scrambled|BSA peptide
T3 peptide: GFEALGTAIRYPMGQR

T4: ABCB5 linear epitope peptide (3rd extracellular loop) (human)
T4 construct: Synthetic linear peptide, used at 20 uM in the ELISA; 104; also called ABCB5 peptide; linear peptide
T4 peptide: RFGAYLIQAGRMTPEG

T5: ABCB1 peptide segment corresponding to the ABCB5 linear epitope peptide (human, UniProt P08183 958-973, limits assumed)
T5 construct: domain: corresponding peptide segment (3rd extracellular loop); also called homologous control peptide
T5 peptide (looked up): RFGAYLVAHKLMSFED

T6: ABCB11 peptide segment corresponding to the ABCB5 linear epitope peptide (human, UniProt O95342 1001-1016, limits assumed)
T6 construct: domain: corresponding peptide segment (3rd extracellular loop); also called homologous control peptide
T6 peptide (looked up): RYGGYLISNEGLHFSY

T7: cyclic 'scrambled' (neg. ctrl.) peptide (disulfide 1-18)
T7 construct: also called cycl. 'scrambled'
T7 peptide: Biotin-CGFEALGTAIRYPMGQRC


Legend:
[1] = molecular target: T1, cyclic (biotinylated) ABCB5 peptide; assay: cyclic biotinylated peptide ELISA (200 nM peptide on streptavidin plates), no Ab control subtracted (FIG. 4A)
[2] = molecular target: T2, ABCB4 peptide segment corresponding to …; assay: linear peptide ELISA, BSA-conjugated peptides (20 µM), OD 450 nm (mAb-Iso)
From the text: (§1) Specificity for ABCB5 of Ab100. ELISAs run against ABCB5 peptide used to make the antibody was examined. The linear peptide ELISA binding study was a comparative assessment of quantitative binding to ABCB5 linear epitope peptide (3rd extracellular loop) and corresponding peptide segments of homologous (ABCB 1, 4, 11) and orthologous (murine ABCB5) proteins—to assess specificity and/or cross-reactivity (see FIG. 2). […] A primate sequence was not tested as the epitope sequence is identical to the human epitope. A scrambled peptide was used as a negative control. All of the tested peptides are all linear peptides, synthetically created to resemble extracellular loop. The X-axis is the Ab concentration. The Y-axis is the optical density of ELISA (signal representing binding). A non-specific signal with isotype antibody has been subtracted, which is why a non-specific isotype antibody is not shown.

[3] = molecular target: T3, 'scrambled' (neg. ctrl.) peptide; assay: as above
From the text: as §1

[4] = molecular target: T4, ABCB5 linear epitope peptide (3rd …); assay: as above
From the text: as §1

[5] = molecular target: T1, cyclic (biotinylated) ABCB5 peptide; assay: cyclic biotinylated peptide ELISA (200 nM peptide on streptavidin plates), BSA control subtracted (FIG. 4B)
[6] = molecular target: T5, ABCB1 peptide segment corresponding to …; assay: linear peptide ELISA, BSA-conjugated peptides (20 µM), OD 450 nm (mAb-Iso (InVivoPlus+))
[7] = molecular target: T6, ABCB11 peptide segment corresponding to …; assay: as above
[8] = molecular target: T3, 'scrambled' (neg. ctrl.) peptide; assay: as above
[9] = molecular target: T4, ABCB5 linear epitope peptide (3rd …); assay: as above
[10] = molecular target: T1, cyclic (biotinylated) ABCB5 peptide; assay: cyclic biotinylated peptide ELISA (200 nM peptides), curve fit
[11] = molecular target: T1, cyclic (biotinylated) ABCB5 peptide; assay: cyclic biotinylated peptide ELISA (200 nM peptides), broad range of mAb concentrations, curve fit
[12] = molecular target: T7, cyclic 'scrambled' (neg. ctrl.) peptide; assay: cyclic biotinylated peptide ELISA (200 nM peptides), OD 450 nm (mAb-average Iso)
[13] = molecular target: T1, cyclic (biotinylated) ABCB5 peptide; assay: cyclic biotinylated peptide ELISA (200 nM peptides), broad range of mAb concentrations, OD 450 nm (mAb-average Iso)
[14] = molecular target: T1, cyclic (biotinylated) ABCB5 peptide; assay: cyclic biotinylated peptide ELISA (200 nM peptides), broad range of mAb concentrations, curve fit, OD 450 nm
[15] = molecular target: T1, cyclic (biotinylated) ABCB5 peptide; assay: cyclic biotinylated peptide ELISA (200 nM peptides), curve fit, OD 450 nm
[16] = molecular target: T5, ABCB1 peptide segment corresponding to …; assay: linear peptide ELISA, BSA-conjugated peptides (20 µM), OD 450 nm (mAb-Iso (InVivoPlus+))
[17] = molecular target: T6, ABCB11 peptide segment corresponding to …; assay: as above
[18] = molecular target: T3, 'scrambled' (neg. ctrl.) peptide; assay: as above
[19] = molecular target: T4, ABCB5 linear epitope peptide (3rd …); assay: as above

| Binder | Kd [1] | binding result [2] | binding result [3] | binding result [4] | Kd [5] | binding result [6] | binding result [7] | binding result [8] | binding result [9] | Kd [10] | Kd [11] | binding result [12] | EC50 (read off the curve) [13] [µg/mL] | Bmax [14] | Bmax [15] | binding result [16] | binding result [17] | binding result [18] | binding result [19] |
| --- | --- | --- | --- | --- | --- | --- | --- | --- | --- | --- | --- | --- | --- | --- | --- | --- | --- | --- | --- |
| ABCB5-Ab43 (antibody, V domains shown) VH: QVQLVQSGAEVKKPGASVKVSCKASGYTFTSYYMHWVRQSPGQGLEWMGIINPSGGSTSYAQKFQGRVTMTRDTSTSTVYMELSSLRSEDTAVYYCARDQAVTGTAYYYYYGMDVWGQGTTVTVSS VL: EIVLTQSPGTLSLSPGERATLSCRASQSVNSKYLAWYQQKPGQAPRLLIYGTSSRATGIPDSFSGSGSGTDFTLTISRLEPEDFAVYYCQQFGSSPLTFGGGTKVEIK |  |  |  |  |  |  |  |  |  | 0.0204 µg/mL and 0.137 nM | 0.0345 µg/mL and 0.231 nM | no binding (tested: 1 µg/ml) | ~0.04 | 3.77 | 3.24 | no binding (tested: 50 µg/ml) | no binding (tested: 50 µg/ml) | no binding (tested: 50 µg/ml) | binds |
| ABCB5-Ab44 (antibody, V domains shown, also called A44; F01) VH: QVQLVQSGAEVKKPGASVKVSCKASGYTFTSYYMHWVRQAPGQGLEWMGIINPSGGSTSYAQKFKGRVTMTRDTSTSTVYMELSSLRSEDTAVYYCARDQAVTGTAYYYYYGMDVWGQGTTVTVSS VL: EIVLTQSPGTLSLSPGERATLSCRASQSVNSNYLAWYQQKPGQAPRLLIYGTSSRATGIPDSFSGSGSGTDFTLTISRLEPEDFAVYYCQQFGSSPLTFGGGTKVEIK |  |  |  |  |  |  |  |  |  | 0.00917 µg/mL and 0.0615 nM | 0.0335 µg/mL and 0.225 nM | no binding (tested: 1 µg/ml) | ~0.04 | 3.99 | 3.23 | no binding (tested: 50 µg/ml) | no binding (tested: 50 µg/ml) | no binding (tested: 50 µg/ml) | binds |
| ABCB5-Ab42 (antibody, V domains shown, detection was with an anti-human secondary antibody) VH: QVQLVQSGAEVKKPGASVKVSCKTSGYTFTSYYMHWVRQSPGQGLEWMGIINPSGGSTSYAQKFQGRVTMTRDTSTSTVYMELSSLRSEDTAVYYCARDQAVTGTAYYYYYGMDVWGQGTTVTVSS VL: EIVLTQSPGTLSLSPGERATLSCRASLSVNSNYLAWYQQKPGQAPRLLIYGTSSRATGIPDSFSGSGSGTDFTLTISRLEPEDFAVYYCQQFGSSPLTFGGGTKVEIK |  |  |  |  |  |  |  |  |  | 0.0222 µg/mL and 0.149 nM | 0.0471 µg/mL and 0.316 nM | no binding (tested: 1 µg/ml) | ~0.04 | 4.09 | 3.17 | no binding (tested: 50 µg/ml) | no binding (tested: 50 µg/ml) | no binding (tested: 50 µg/ml) | binds |

Other lines, results leading:

| Kd [1] | binding result [2] | binding result [3] | binding result [4] | Kd [5] | binding result [6] | binding result [7] | binding result [8] | binding result [9] | Kd [10] | Kd [11] | binding result [12] | EC50 (read off the curve) [13] [µg/mL] | Bmax [14] | Bmax [15] | binding result [16] | binding result [17] | binding result [18] | binding result [19] | Binder |
| --- | --- | --- | --- | --- | --- | --- | --- | --- | --- | --- | --- | --- | --- | --- | --- | --- | --- | --- | --- |
| 4.93 µg/mL and 33.1 nM | no binding (tested: 50 µg/mL) | no binding (tested: 50 µg/mL) | binds | 6.16 µg/mL and 41.3 nM |  |  |  |  |  |  |  |  |  |  |  |  |  |  | ABCB5-Ab100 (antibody, human IgG1, kappa, V domains shown) VH: EVQLVESGGGLVQPGGSLRLSCAASGFTFSSYSMNWVRQAPGKGLEWVSYISSSSSTIYYADSVKGRFTISRDNAKNSLYLQMNSLRDEDTAVYYCASNYQYGDYGGYWGRGTLVTVSS VL: AIQLTQSPSSLTGSVGDRVTITCQASHDISNFLNWYQQKPGQAPKLLIYDAYNLQTGVPSRFSGTGSGTHFTLTINSLQPEDVGTYFCQQYDYFLSITFGQGTRLEIKR |
|  |  |  |  |  | no binding (tested: 50 µg/ml) | no binding (tested: 50 µg/ml) | no binding (tested: 50 µg/ml) | binds | 0.0283 µg/mL and 0.19 nM | 0.039 µg/mL and 0.261 nM | no binding (tested: 1 µg/ml) | ~0.04 | 3.83 | 3.33 |  |  |  |  | ABCB5-Ab101 (antibody, human IgG1, kappa, V domains shown, Fully human monoclonal IgG1 kappa) VH: QVQLVQSGAEVKKPGASVKVSCKASGYTFTSYYMHWVRQAPGQGLEWMGIINPSGGSTSYAQKFQGRVTMTRDTSTSTVYMELSSLRSEDTAVYYCARDQAVTGTAYYYYYGMDVWGQGTTVTVSS VL: EIVLTQSPGTLSLSPGERATLSCRASQSVNSNYLAWYQQKPGQAPRLLIYGTSSRATGIPDSFSGSGSGTDFTLTISRLEPEDFAVYYCQQFGSSPLTFGGGTKVEIKR |
|  |  |  |  |  |  |  |  |  | 0.00456 µg/mL and 0.0306 nM | 0.0205 µg/mL and 0.138 nM | no binding (tested: 1 µg/ml) | ~0.02 | 3.71 | 3.2 | no binding (tested: 50 µg/ml) | no binding (tested: 50 µg/ml) | no binding (tested: 50 µg/ml) | binds | ABCB5-Ab45 (antibody, V domains shown) VH: QVQLVQSGAEVKKPGASVKVSCKASGYTFTNYYMHWVRQAPGQGPEWMGIINPSGGSTSYAQKFQGRVTMTRDTSTSTVYMELSSLRSEDTAVYYCARDLAVTGTAYYYYYGMDVWGQGTTVTVSS VL: EFVLTQSPGTLSLSPGERATLSCRASQSVNSNYLAWYQQKPGQAPRLLIYGTSSRATGIPDSFSGSGSGTDFTLTISRLEPEDFAVYYCQQFGSSPLTFGGGTKVEIK |
